Results taken from PMC9482650, “Quantitative fragmentomics allow affinity mapping of interactomes” (Nature Communications, 2022).

Columns and labels:
Assay in all cases: holdup assay
Set-up in all cases: key: below the threshold = too weak to quantify, mostly under pKd 3.1 to 4
[1] = target: IL16_3, Q14005
[2] = target: T1, MPDZ_10, O75970
T1 sequence (O75970 1624-1722, limits assumed, looked up): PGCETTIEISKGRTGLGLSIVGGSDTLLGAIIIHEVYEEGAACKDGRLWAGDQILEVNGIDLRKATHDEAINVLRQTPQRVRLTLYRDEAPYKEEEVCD

[3] = target: DLG1_3, Q12959
[4] = target: T2, ARHGEF11, O15085
T2 sequence (O15085 42-136, limits assumed, looked up): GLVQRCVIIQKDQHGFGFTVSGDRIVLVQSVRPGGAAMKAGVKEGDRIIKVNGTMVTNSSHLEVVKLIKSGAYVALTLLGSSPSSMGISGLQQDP

[5] = target: T3, NHERF3_3, Q5T2W1
T3 sequence (Q5T2W1 238-333, limits assumed, looked up): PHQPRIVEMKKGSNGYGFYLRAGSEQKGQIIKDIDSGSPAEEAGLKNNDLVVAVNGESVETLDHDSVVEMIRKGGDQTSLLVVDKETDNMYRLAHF

[6] = target: PICK1, Q9NRD5
[7] = target: T4, APBA2_2, Q99767
T4 sequence (Q99767 654-744, limits assumed, looked up): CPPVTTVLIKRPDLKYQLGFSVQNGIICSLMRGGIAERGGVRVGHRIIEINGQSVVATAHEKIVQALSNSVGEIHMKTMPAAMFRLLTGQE

[8] = target: SNX27, Q96L92
[9] = target: GRID2IP_2, A4D2P6
[10] = target: TJP1_3, Q07157
[11] = target: GORASP2, Q9H8Y8
[12] = target: MAST1, Q9Y2H9
[13] = target: Inadl_5, Q8NI35
[14] = target: GRIP2_4, Q9C0E4
[15] = target: T5, HTRA3, P83110
T5 sequence (P83110 354-453, limits assumed, looked up): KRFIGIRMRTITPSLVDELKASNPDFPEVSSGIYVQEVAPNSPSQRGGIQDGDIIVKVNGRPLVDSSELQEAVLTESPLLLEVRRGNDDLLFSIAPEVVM

[16] = target: TJP1_2, Q07157
[17] = target: T6, LNX2_2, Q8N448
T6 sequence (Q8N448 334-432, limits assumed, looked up): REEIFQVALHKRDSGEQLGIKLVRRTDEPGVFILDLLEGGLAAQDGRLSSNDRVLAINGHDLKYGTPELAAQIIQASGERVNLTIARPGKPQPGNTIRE

[18] = target: HTRA1, Q92743
[19] = target: Inadl_9, Q8NI35
[20] = target: GOPC, Q9HD26
[21] = target: HTRA2, O43464
[22] = target: MAGI1_1, Q96QZ7
[23] = target: MAGI3_2, Q5TCQ9
[24] = target: Inadl_1, Q8NI35
[25] = target: GRIP2_5, Q9C0E4
[26] = target: T7, DFNB31_3, Q9P202
T7 sequence (Q9P202 811-907, limits assumed, looked up): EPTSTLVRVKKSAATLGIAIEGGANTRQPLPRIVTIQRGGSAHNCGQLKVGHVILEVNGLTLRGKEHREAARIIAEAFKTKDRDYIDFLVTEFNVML

[27] = target: T8, DFNB31_2, Q9P202
T8 sequence (Q9P202 274-371, limits assumed, looked up): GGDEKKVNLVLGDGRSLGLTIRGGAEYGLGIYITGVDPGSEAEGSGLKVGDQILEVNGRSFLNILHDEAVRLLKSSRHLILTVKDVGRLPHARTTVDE

[28] = target: Inadl_4, Q8NI35
[29] = target: T9, LNX2_3, Q8N448
T9 sequence (Q8N448 463-564, limits assumed, looked up): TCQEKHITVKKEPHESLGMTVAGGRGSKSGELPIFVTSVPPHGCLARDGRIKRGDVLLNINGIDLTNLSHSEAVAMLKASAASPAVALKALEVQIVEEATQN

[30] = plain residues with an end cap or a label only (N-terminal biotin on a linker: gsgsgs; C-terminal amide)
[31] = plain residues with an end cap or a label only (N-terminal biotin on a linker: ttds)

Sequence of MAGI3_2, Q5TCQ9 (Q5TCQ9 398-503): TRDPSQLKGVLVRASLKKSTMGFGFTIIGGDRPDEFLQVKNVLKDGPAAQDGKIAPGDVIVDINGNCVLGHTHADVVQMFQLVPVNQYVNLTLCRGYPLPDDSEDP
Sequence of GRIP2_4, Q9C0E4 (Q9C0E4 446-548): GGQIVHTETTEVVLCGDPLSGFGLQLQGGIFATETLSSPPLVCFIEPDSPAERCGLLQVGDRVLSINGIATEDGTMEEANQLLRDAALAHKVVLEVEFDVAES
Sequence of GRIP2_5, Q9C0E4 (Q9C0E4 544-642): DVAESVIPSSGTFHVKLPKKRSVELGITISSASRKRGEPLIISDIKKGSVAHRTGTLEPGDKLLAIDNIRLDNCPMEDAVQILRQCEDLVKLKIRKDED
Sequence of MAST1, Q9Y2H9 (Q9Y2H9 962-1065): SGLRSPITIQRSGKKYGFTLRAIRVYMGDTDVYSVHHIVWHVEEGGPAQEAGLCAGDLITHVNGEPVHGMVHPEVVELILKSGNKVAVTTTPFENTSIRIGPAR
Sequence of GRID2IP_2, A4D2P6 (A4D2P6 272-370): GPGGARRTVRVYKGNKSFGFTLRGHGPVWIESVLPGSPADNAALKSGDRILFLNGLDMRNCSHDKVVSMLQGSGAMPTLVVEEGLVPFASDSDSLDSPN
Sequence of HTRA1, Q92743 (Q92743 360-477): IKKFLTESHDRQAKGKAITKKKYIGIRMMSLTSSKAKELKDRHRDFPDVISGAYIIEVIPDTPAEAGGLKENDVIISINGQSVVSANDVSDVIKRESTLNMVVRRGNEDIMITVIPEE
Sequence of PICK1, Q9NRD5 (Q9NRD5 17-115): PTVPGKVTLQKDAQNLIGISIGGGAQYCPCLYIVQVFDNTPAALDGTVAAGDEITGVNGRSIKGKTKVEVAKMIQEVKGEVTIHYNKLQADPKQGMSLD
Sequence of IL16_3, Q14005 (Q14005 1107-1207): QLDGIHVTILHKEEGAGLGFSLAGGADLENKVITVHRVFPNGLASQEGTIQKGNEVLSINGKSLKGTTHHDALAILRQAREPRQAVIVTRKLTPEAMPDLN
Sequence of MAGI1_1, Q96QZ7 (Q96QZ7 1-106): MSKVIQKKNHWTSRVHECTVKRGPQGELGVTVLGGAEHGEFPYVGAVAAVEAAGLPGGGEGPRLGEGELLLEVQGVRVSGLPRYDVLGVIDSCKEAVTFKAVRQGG
Sequence of TJP1_2, Q07157 (Q07157 181-274): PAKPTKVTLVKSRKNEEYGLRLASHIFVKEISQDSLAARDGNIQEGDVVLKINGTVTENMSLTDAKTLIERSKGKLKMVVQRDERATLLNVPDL
Sequence of Inadl_5, Q8NI35 (Q8NI35 673-780): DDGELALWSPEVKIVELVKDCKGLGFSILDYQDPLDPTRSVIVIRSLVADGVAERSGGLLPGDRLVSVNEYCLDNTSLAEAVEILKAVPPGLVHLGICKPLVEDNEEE
Sequence of TJP1_3, Q07157 (Q07157 416-512): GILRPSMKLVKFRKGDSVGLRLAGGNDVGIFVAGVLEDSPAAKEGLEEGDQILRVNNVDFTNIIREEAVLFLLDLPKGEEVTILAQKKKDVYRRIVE
Sequence of Inadl_1, Q8NI35 (Q8NI35 113-229): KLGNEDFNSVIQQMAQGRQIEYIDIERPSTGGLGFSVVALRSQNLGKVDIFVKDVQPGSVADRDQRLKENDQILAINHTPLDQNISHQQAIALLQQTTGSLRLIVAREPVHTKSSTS
Sequence of DLG1_3, Q12959 (Q12959 457-571): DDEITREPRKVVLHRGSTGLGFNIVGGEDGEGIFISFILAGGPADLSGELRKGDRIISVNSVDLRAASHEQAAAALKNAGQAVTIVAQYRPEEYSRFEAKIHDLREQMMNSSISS
Sequence of Inadl_9, Q8NI35 (Q8NI35 1530-1615): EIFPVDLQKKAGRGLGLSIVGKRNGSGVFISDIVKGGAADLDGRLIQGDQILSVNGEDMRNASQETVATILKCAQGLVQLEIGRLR
Sequence of Inadl_4, Q8NI35 (Q8NI35 547-651): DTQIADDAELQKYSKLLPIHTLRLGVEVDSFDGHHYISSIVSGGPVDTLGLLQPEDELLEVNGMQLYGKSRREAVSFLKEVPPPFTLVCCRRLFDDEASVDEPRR
Sequence of HTRA2, O43464 (O43464 355-458): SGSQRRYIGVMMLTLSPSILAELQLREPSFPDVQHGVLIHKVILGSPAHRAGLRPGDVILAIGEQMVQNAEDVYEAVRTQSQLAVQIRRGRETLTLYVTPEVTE

ELIQDTSTSFSTTREW [ARAP3_int, Q8WWN8]
pKd [1, 30]: below the threshold | pKd [2, 30]: below the threshold | pKd [3, 30]: below the threshold | pKd [4, 30]: below the threshold | pKd [5, 30]: below the threshold | pKd [6, 30]: below the threshold | pKd [7, 30]: below the threshold | pKd [8, 30]: below the threshold | pKd [9, 30]: 3.89 | pKd [10, 30]: below the threshold | pKd [11, 30]: below the threshold | pKd [12, 30]: 3.49 | pKd [13, 30]: below the threshold | pKd [14, 30]: below the threshold | pKd [15, 30]: below the threshold | pKd [16, 30]: below the threshold | pKd [17, 30]: below the threshold | pKd [18, 30]: below the threshold | pKd [19, 30]: below the threshold | pKd [20, 30]: below the threshold | pKd [21, 30]: below the threshold | pKd [22, 30]: below the threshold | pKd [23, 30]: below the threshold | pKd [24, 30]: below the threshold | pKd [25, 30]: below the threshold | pKd [26, 30]: 3.83 | pKd [27, 30]: below the threshold | pKd [28, 30]: below the threshold | pKd [29, 30]: below the threshold

GGPKEEESPV [SLC16A1, P53985]
pKd [1, 31]: below the threshold | pKd [2, 31]: below the threshold | pKd [3, 31]: below the threshold | pKd [4, 31]: below the threshold | pKd [5, 31]: below the threshold | pKd [6, 31]: below the threshold | pKd [7, 31]: below the threshold | pKd [8, 31]: 5.27 | pKd [9, 31]: below the threshold | pKd [10, 31]: below the threshold | pKd [11, 31]: below the threshold | pKd [12, 31]: below the threshold | pKd [13, 31]: below the threshold | pKd [14, 31]: below the threshold | pKd [15, 31]: below the threshold | pKd [16, 31]: below the threshold | pKd [17, 31]: below the threshold | pKd [18, 31]: below the threshold | pKd [19, 31]: below the threshold | pKd [20, 31]: below the threshold | pKd [21, 31]: below the threshold | pKd [22, 31]: below the threshold | pKd [23, 31]: below the threshold | pKd [24, 31]: below the threshold | pKd [25, 31]: below the threshold | pKd [26, 31]: below the threshold | pKd [27, 31]: below the threshold | pKd [28, 31]: below the threshold | pKd [29, 31]: below the threshold
